The values below come from patent US20250222128A1 (Zymeworks, published 2025).

The target of assay [1] is T1, c-Met (hepatocyte growth factor receptor, HGFR), endogenous on tumour cell lines (UniProt P08581 25-1390, limits assumed).
T1 construct: whole, on cells
The assay is described as follows: apparent Kd, flow cytometry on H292 cells (endogenous cMet). On the procedure:
(§1) Briefly, cells were seeded at 50,000 cells/well in V-bottom 96-well plates and treated with antibody for 24 hours at 4° C. to prevent internalization. Following incubation, cells were washed and stained with anti-human IgG Fc AF647 conjugate (Jackson ImmunoResearch Laboratories, Inc., West Grove, PA; Cat. No. 109-605-098) at 4° C. for 30 min. Following incubation and washing, fluorescence was detected by flow cytometry on a BD LSRFortessa™ Cell Analyzer (BD Biosciences, Franklin Lake, NJ) with 1,000 minimum events collected per well. AF647/APC-A GeoMean (fluorescence signal geometric mean, proportional to anti-Human AF647 binding) in live cell population was plotted using GraphPad Prism Version 8 (GraphPad Software, San Diego, CA).
(§2) Cellular binding was determined as described in Example 10.
Background: Flow cytometry measures light scatter and fluorescence of single cells or particles in a stream.

Assay [2] has as its target T1, c-Met (hepatocyte growth factor …). The assay is described as follows: flow cytometry on SNU-5 cells (endogenous cMet), as in Example 10. On the procedure:
as §1, §2

Assay [3] has the same target. The assay is described as follows: flow cytometry on H292 cells (endogenous cMet), as in Example 10. The protocol:
as §1, §2

The target is the same in assay [4]. The assay can be described thus: apparent Kd, flow cytometry on SNU-5 cells (endogenous cMet). The protocol:
as §1, §2

Assay [5] has the same target. The assay is described as follows: apparent Kd, flow cytometry on H292 cells (endogenous cMet). The protocol:
as §1
The source holds these as a separate data set.

Assay [6] shares this target. The assay is described as follows: flow cytometry on H292 cells (endogenous cMet), 24 h at 4 C, anti-human IgG Fc AF647. The protocol: as §1
Assay [7] shares this target. The assay is described as follows: flow cytometry on SNU-5 cells (endogenous cMet), 24 h at 4 C, anti-human IgG Fc AF647. On the procedure:
as §1

Assay [8] has the same target. The assay is described as follows: apparent Kd, flow cytometry on SNU-5 cells (endogenous cMet). On the procedure:
as §1
This is another data set of the same source.

T1 sequence (P08581 25-1390 limits assumed): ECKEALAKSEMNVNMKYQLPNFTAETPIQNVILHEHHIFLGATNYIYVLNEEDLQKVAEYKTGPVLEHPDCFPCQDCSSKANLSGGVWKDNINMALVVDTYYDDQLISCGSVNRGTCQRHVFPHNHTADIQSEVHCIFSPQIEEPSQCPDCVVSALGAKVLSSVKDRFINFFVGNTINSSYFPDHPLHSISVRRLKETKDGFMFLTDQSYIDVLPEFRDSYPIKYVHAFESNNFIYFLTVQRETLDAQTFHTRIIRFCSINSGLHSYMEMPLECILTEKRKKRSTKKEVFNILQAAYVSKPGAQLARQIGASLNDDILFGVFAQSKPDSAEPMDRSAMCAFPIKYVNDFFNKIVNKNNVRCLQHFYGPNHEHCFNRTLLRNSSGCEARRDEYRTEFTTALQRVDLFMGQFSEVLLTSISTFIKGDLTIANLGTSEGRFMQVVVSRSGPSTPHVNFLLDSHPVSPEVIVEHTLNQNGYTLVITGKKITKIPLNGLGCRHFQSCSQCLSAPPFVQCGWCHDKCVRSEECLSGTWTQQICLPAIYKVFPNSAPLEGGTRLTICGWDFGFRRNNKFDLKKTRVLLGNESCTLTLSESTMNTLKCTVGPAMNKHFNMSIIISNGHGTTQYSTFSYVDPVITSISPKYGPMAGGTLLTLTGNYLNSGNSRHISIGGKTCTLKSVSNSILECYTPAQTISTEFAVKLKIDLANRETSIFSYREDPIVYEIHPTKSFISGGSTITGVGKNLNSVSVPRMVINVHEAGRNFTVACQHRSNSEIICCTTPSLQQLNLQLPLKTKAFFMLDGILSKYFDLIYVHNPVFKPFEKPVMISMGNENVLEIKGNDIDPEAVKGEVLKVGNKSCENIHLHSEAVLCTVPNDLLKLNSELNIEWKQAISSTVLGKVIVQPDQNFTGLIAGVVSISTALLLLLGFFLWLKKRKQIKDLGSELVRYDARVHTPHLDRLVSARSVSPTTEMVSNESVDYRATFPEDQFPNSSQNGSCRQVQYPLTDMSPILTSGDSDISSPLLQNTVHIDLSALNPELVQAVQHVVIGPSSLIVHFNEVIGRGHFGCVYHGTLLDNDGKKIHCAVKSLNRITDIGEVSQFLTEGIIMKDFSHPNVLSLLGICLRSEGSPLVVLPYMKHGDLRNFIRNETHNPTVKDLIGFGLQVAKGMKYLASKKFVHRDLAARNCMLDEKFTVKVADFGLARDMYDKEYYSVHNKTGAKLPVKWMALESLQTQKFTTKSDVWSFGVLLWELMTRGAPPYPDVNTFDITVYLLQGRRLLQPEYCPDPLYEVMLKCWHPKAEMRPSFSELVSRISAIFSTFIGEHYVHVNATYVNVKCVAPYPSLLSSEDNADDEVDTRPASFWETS

B1: v29001 (telisotuzumab paratope, HetFc, unmodified hinge, two cysteine insertions between T299 and Y300) (antibody, human IgG1, kappa)
heavy 1: QVQLVQSGAEVKKPGASVKVSCKASGYIFTAYTMHWVRQAPGQGLEWMGWIKPNNGLANYAQKFQGRVTMTRDTSISTAYMELSRLRSDDTAVYYCARSEITTEFDYWGQGTLVTVSSASTKGPSVFPLAPSSKSTSGGTAALGCLVKDYFPEPVTVSWNSGALTSGVHTFPAVLQSSGLYSLSSVVTVPSSSLGTQTYICNVNHKPSNTKVDKKVEPKSCDKTHTCPPCPAPELLGGPSVFLFPPKPKDTLMISRTPEVTCVVVDVSHEDPEVKFNWYVDGVEVHNAKTKPREEQYNSTCYRVVSVLTVLHQDWLNGKEYKCKVSNKALPAPIEKTISKAKGQPREPQVYVYPPSRDELTKNQVSLTCLVKGFYPSDIAVEWESNGQPENNYKTTPPVLDSDGSFALVSKLTVDKSRWQQGNVFSCSVMHEALHNHYTQKSLSLSPG
heavy 2: QVQLVQSGAEVKKPGASVKVSCKASGYIFTAYTMHWVRQAPGQGLEWMGWIKPNNGLANYAQKFQGRVTMTRDTSISTAYMELSRLRSDDTAVYYCARSEITTEFDYWGQGTLVTVSSASTKGPSVFPLAPSSKSTSGGTAALGCLVKDYFPEPVTVSWNSGALTSGVHTFPAVLQSSGLYSLSSVVTVPSSSLGTQTYICNVNHKPSNTKVDKKVEPKSCDKTHTCPPCPAPELLGGPSVFLFPPKPKDTLMISRTPEVTCVVVDVSHEDPEVKFNWYVDGVEVHNAKTKPREEQYNSTCYRVVSVLTVLHQDWLNGKEYKCKVSNKALPAPIEKTISKAKGQPREPQVYVLPPSRDELTKNQVSLLCLVKGFYPSDIAVEWESNGQPENNYLTWPPVLDSDGSFFLYSKLTVDKSRWQQGNVFSCSVMHEALHNHYTQKSLSLSPG
light: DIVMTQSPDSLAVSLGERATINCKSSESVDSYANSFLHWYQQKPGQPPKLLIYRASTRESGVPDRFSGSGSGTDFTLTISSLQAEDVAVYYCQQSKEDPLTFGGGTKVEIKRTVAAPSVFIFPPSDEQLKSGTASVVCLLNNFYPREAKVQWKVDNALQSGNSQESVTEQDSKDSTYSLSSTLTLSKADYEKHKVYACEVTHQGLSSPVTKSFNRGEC
notes: also called variant v29001; cysteine insertion variant v29001
For the molecule B1, the figures for the Kd in assay [1] and in assay [4] were 0.024 nM and 0.428 nM, respectively. Besides, the Bmax was 32100 AF647 GeoMean fluorescence in assay [2] and 2040 AF647 GeoMean fluorescence in assay [3].

B2: v29001-Drug-Linker 003 DAR 4 (antibody, human IgG1, kappa)
heavy 1: QVQLVQSGAEVKKPGASVKVSCKASGYIFTAYTMHWVRQAPGQGLEWMGWIKPNNGLANYAQKFQGRVTMTRDTSISTAYMELSRLRSDDTAVYYCARSEITTEFDYWGQGTLVTVSSASTKGPSVFPLAPSSKSTSGGTAALGCLVKDYFPEPVTVSWNSGALTSGVHTFPAVLQSSGLYSLSSVVTVPSSSLGTQTYICNVNHKPSNTKVDKKVEPKSCDKTHTCPPCPAPELLGGPSVFLFPPKPKDTLMISRTPEVTCVVVDVSHEDPEVKFNWYVDGVEVHNAKTKPREEQYNSTCYRVVSVLTVLHQDWLNGKEYKCKVSNKALPAPIEKTISKAKGQPREPQVYVYPPSRDELTKNQVSLTCLVKGFYPSDIAVEWESNGQPENNYKTTPPVLDSDGSFALVSKLTVDKSRWQQGNVFSCSVMHEALHNHYTQKSLSLSPG
heavy 2: QVQLVQSGAEVKKPGASVKVSCKASGYIFTAYTMHWVRQAPGQGLEWMGWIKPNNGLANYAQKFQGRVTMTRDTSISTAYMELSRLRSDDTAVYYCARSEITTEFDYWGQGTLVTVSSASTKGPSVFPLAPSSKSTSGGTAALGCLVKDYFPEPVTVSWNSGALTSGVHTFPAVLQSSGLYSLSSVVTVPSSSLGTQTYICNVNHKPSNTKVDKKVEPKSCDKTHTCPPCPAPELLGGPSVFLFPPKPKDTLMISRTPEVTCVVVDVSHEDPEVKFNWYVDGVEVHNAKTKPREEQYNSTCYRVVSVLTVLHQDWLNGKEYKCKVSNKALPAPIEKTISKAKGQPREPQVYVLPPSRDELTKNQVSLLCLVKGFYPSDIAVEWESNGQPENNYLTWPPVLDSDGSFFLYSKLTVDKSRWQQGNVFSCSVMHEALHNHYTQKSLSLSPG
light: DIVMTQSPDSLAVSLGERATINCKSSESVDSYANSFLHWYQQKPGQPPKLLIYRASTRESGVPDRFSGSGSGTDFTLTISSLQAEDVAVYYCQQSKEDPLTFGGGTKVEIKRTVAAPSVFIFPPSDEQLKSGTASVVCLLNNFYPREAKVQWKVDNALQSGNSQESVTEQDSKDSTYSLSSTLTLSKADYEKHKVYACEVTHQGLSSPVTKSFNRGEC
modifications: bivalent Drug-Linker 003 on the cysteine inserted between T299 and Y300 (EU); bivalent Drug-Linker 003 (two Compound 1) on the cysteine inserted between T299 and Y300 (EU)
notes: Site-specific cysteine-conjugated antibody-drug conjugate of v29001
With B2, the Kd in assay [1] was 0.03 nM; in assay [4], 1.13 nM. In addition, the Bmax is 38600 AF647 GeoMean fluorescence in assay [2] and 2048 AF647 GeoMean fluorescence in assay [3].

B3: v29001-Drug-Linker 001 DAR 2 (antibody, human IgG1, kappa)
heavy 1: QVQLVQSGAEVKKPGASVKVSCKASGYIFTAYTMHWVRQAPGQGLEWMGWIKPNNGLANYAQKFQGRVTMTRDTSISTAYMELSRLRSDDTAVYYCARSEITTEFDYWGQGTLVTVSSASTKGPSVFPLAPSSKSTSGGTAALGCLVKDYFPEPVTVSWNSGALTSGVHTFPAVLQSSGLYSLSSVVTVPSSSLGTQTYICNVNHKPSNTKVDKKVEPKSCDKTHTCPPCPAPELLGGPSVFLFPPKPKDTLMISRTPEVTCVVVDVSHEDPEVKFNWYVDGVEVHNAKTKPREEQYNSTCYRVVSVLTVLHQDWLNGKEYKCKVSNKALPAPIEKTISKAKGQPREPQVYVYPPSRDELTKNQVSLTCLVKGFYPSDIAVEWESNGQPENNYKTTPPVLDSDGSFALVSKLTVDKSRWQQGNVFSCSVMHEALHNHYTQKSLSLSPG
heavy 2: QVQLVQSGAEVKKPGASVKVSCKASGYIFTAYTMHWVRQAPGQGLEWMGWIKPNNGLANYAQKFQGRVTMTRDTSISTAYMELSRLRSDDTAVYYCARSEITTEFDYWGQGTLVTVSSASTKGPSVFPLAPSSKSTSGGTAALGCLVKDYFPEPVTVSWNSGALTSGVHTFPAVLQSSGLYSLSSVVTVPSSSLGTQTYICNVNHKPSNTKVDKKVEPKSCDKTHTCPPCPAPELLGGPSVFLFPPKPKDTLMISRTPEVTCVVVDVSHEDPEVKFNWYVDGVEVHNAKTKPREEQYNSTCYRVVSVLTVLHQDWLNGKEYKCKVSNKALPAPIEKTISKAKGQPREPQVYVLPPSRDELTKNQVSLLCLVKGFYPSDIAVEWESNGQPENNYLTWPPVLDSDGSFFLYSKLTVDKSRWQQGNVFSCSVMHEALHNHYTQKSLSLSPG
light: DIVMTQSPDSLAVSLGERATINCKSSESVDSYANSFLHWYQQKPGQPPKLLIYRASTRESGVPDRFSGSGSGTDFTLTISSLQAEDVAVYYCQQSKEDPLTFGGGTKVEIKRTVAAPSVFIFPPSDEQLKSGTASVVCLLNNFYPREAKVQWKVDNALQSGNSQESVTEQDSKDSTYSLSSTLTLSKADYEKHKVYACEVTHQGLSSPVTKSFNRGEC
modifications: Drug-Linker 001 on the cysteine inserted between T299 and Y300 (EU); Drug-Linker 001 (auristatin analogue Compound 1) on the cysteine inserted between T299 and Y300 (EU)
notes: as for B2
Regarding B3, the Kd in assay [1] is 0.064 nM; in assay [4], 0.584 nM. Further, the Bmax is 35800 AF647 GeoMean fluorescence in assay [2] and 2070 AF647 GeoMean fluorescence in assay [3].

B4: v29001-Drug-Linker 004 DAR 6 (antibody, human IgG1, kappa)
heavy 1: QVQLVQSGAEVKKPGASVKVSCKASGYIFTAYTMHWVRQAPGQGLEWMGWIKPNNGLANYAQKFQGRVTMTRDTSISTAYMELSRLRSDDTAVYYCARSEITTEFDYWGQGTLVTVSSASTKGPSVFPLAPSSKSTSGGTAALGCLVKDYFPEPVTVSWNSGALTSGVHTFPAVLQSSGLYSLSSVVTVPSSSLGTQTYICNVNHKPSNTKVDKKVEPKSCDKTHTCPPCPAPELLGGPSVFLFPPKPKDTLMISRTPEVTCVVVDVSHEDPEVKFNWYVDGVEVHNAKTKPREEQYNSTCYRVVSVLTVLHQDWLNGKEYKCKVSNKALPAPIEKTISKAKGQPREPQVYVYPPSRDELTKNQVSLTCLVKGFYPSDIAVEWESNGQPENNYKTTPPVLDSDGSFALVSKLTVDKSRWQQGNVFSCSVMHEALHNHYTQKSLSLSPG
heavy 2: QVQLVQSGAEVKKPGASVKVSCKASGYIFTAYTMHWVRQAPGQGLEWMGWIKPNNGLANYAQKFQGRVTMTRDTSISTAYMELSRLRSDDTAVYYCARSEITTEFDYWGQGTLVTVSSASTKGPSVFPLAPSSKSTSGGTAALGCLVKDYFPEPVTVSWNSGALTSGVHTFPAVLQSSGLYSLSSVVTVPSSSLGTQTYICNVNHKPSNTKVDKKVEPKSCDKTHTCPPCPAPELLGGPSVFLFPPKPKDTLMISRTPEVTCVVVDVSHEDPEVKFNWYVDGVEVHNAKTKPREEQYNSTCYRVVSVLTVLHQDWLNGKEYKCKVSNKALPAPIEKTISKAKGQPREPQVYVLPPSRDELTKNQVSLLCLVKGFYPSDIAVEWESNGQPENNYLTWPPVLDSDGSFFLYSKLTVDKSRWQQGNVFSCSVMHEALHNHYTQKSLSLSPG
light: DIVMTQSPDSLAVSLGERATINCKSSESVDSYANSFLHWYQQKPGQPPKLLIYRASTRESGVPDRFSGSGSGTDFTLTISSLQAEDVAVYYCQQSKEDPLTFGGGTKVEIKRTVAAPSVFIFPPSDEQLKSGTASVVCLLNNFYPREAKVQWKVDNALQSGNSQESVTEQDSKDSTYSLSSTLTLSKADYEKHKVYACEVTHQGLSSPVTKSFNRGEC
modifications: trivalent Drug-Linker 004 on the cysteine inserted between T299 and Y300 (EU); trivalent Drug-Linker 004 (three Compound 1) on the cysteine inserted between T299 and Y300 (EU)
notes: as for B2
As to B4, the values for the Kd in assay [1] and in assay [4] were 0.028 nM and 0.615 nM, respectively. For the same molecule, the results for the Bmax in assay [2] and in assay [3] were 37700 AF647 GeoMean fluorescence and 2010 AF647 GeoMean fluorescence, respectively.

B5: v32634 (telisotuzumab paratope, HomoFc, unmodified hinge, full-size IgG1 antibody) (antibody, V domains shown)
VH: QVQLVQSGAEVKKPGASVKVSCKASGYIFTAYTMHWVRQAPGQGLEWMGWIKPNNGLANYAQKFQGRVTMTRDTSISTAYMELSRLRSDDTAVYYCARSEITTEFDYWGQGTLVTVSS
VL: DIVMTQSPDSLAVSLGERATINCKSSESVDSYANSFLHWYQQKPGQPPKLLIYRASTRESGVPDRFSGSGSGTDFTLTISSLQAEDVAVYYCQQSKEDPLTFGGGTKVEIKR
notes: also called variant v32634; unconjugated HomoFc variant
Take B5: the figures for the Kd in assay [5] and in assay [8] were 0.02 nM and 0.59 nM, respectively. In addition, the Bmax in assay [6] was 2240 AF647 GeoMean fluorescence; in assay [7], 37200 AF647 GeoMean fluorescence.

B6: v32634-Drug-Linker 002 DAR6 (antibody, V domains shown)
VH: QVQLVQSGAEVKKPGASVKVSCKASGYIFTAYTMHWVRQAPGQGLEWMGWIKPNNGLANYAQKFQGRVTMTRDTSISTAYMELSRLRSDDTAVYYCARSEITTEFDYWGQGTLVTVSS
VL: DIVMTQSPDSLAVSLGERATINCKSSESVDSYANSFLHWYQQKPGQPPKLLIYRASTRESGVPDRFSGSGSGTDFTLTISSLQAEDVAVYYCQQSKEDPLTFGGGTKVEIKR
modifications: Drug-Linker 002 stochastically conjugated to lysine residues of the antibody, about DAR 6; Drug-Linker 002 (auristatin analogue Compound 1) stochastically conjugated to lysine residues of the antibody, about DAR 6
notes: Antibody-drug conjugate of v32634
On to B6, for which the Bmax in assay [6] is 2200 AF647 GeoMean fluorescence; in assay [7], 41100 AF647 GeoMean fluorescence. Further, in assay [8], the Kd is 0.71 nM.

B7: v32634-Drug-Linker 002 DAR4 (antibody, V domains shown)
VH: QVQLVQSGAEVKKPGASVKVSCKASGYIFTAYTMHWVRQAPGQGLEWMGWIKPNNGLANYAQKFQGRVTMTRDTSISTAYMELSRLRSDDTAVYYCARSEITTEFDYWGQGTLVTVSS
VL: DIVMTQSPDSLAVSLGERATINCKSSESVDSYANSFLHWYQQKPGQPPKLLIYRASTRESGVPDRFSGSGSGTDFTLTISSLQAEDVAVYYCQQSKEDPLTFGGGTKVEIKR
modifications: Drug-Linker 002 stochastically conjugated to lysine residues of the antibody, about DAR 4; Drug-Linker 002 (auristatin analogue Compound 1) stochastically conjugated to lysine residues of the antibody, about DAR 4
notes: as for B6
B7: the Bmax in assay [6] was 2130 AF647 GeoMean fluorescence; in assay [7], 33700 AF647 GeoMean fluorescence. The Kd in assay [8] was found to be 0.46 nM.
